Laboratory results reported in doi:10.1101/2024.08.23.608024.

T1: GbpC (glucan-binding protein C), extracellular fragment (Streptococcus mutans, UniProt Q8DTF1 111-522)
T1 sequence: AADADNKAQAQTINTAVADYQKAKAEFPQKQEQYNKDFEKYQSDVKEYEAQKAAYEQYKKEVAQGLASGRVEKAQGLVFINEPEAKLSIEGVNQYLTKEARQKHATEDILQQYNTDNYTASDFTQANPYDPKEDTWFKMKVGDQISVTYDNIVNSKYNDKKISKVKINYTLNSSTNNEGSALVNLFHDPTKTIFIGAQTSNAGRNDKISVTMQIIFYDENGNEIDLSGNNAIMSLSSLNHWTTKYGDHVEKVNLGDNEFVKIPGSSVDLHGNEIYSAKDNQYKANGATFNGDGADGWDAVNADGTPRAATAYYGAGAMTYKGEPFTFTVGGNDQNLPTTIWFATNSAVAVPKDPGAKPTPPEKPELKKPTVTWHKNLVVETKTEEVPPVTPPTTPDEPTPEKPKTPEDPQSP


Assays:
[1] = biological target: T1, GbpC (glucan-binding protein C), …; test: BLI
[2] = biological target: T1, GbpC (glucan-binding protein C), …; test: MST
[3] = biological target: T1, GbpC (glucan-binding protein C), …; test: AlphaScreen

Row | Binder | Kd [1] [µM] | Kd [2] [µM] | binding result [3]
1 | A39 (flanked) (ssDNA) DNA: AGATACCAATACGCTGCCTAGCCCCTACCCTGTTGCTCCCCCTCGCCCCTCTCACCCCGCCACTGGTAACGACATC | 5.7 | – | –
2 | TAGCCCCTACCCTGTTGCTCCCCCTCGCCCCTCTCACCCC (ssDNA) [A39 truncated] | – | 19.6 | –
3 | A65 (ssDNA) DNA: AGATACCAATACGCTGCCTTTCCAATTACGCCATGCATCACCCCTAAAATCTGAATACGCCACTGGTAACGACATC | – | – | binds
4 | A96 (flanked) (ssDNA) DNA: AGATACCAATACGCTGCCCCGCCGGTCCCGAGCTACAACACTTTACGCCCCCCTCCCCGCCACTGGTAACGACATC | 0.4 | 8.5 | –
5 | CCGCCGGTCCCGAGCTACAACACTTTACGCCCCCCTCCC (ssDNA) [A96 truncated] | – | 66.9 | –
6 | A30 (ssDNA) DNA: AGATACCAATACGCTGCCTTCTTGAAAAAGGGTAGCGCAGGCCGCTAATGACATAACTGCCACTGGTAACGACATC | – | – | binds
